For the assay, the target named is GST-SpyCatcher fusion protein, immobilised on nanoparticles (Streptococcus pyogenes). The experiment in a line: dynamic light scattering; GST-SpyCatcher held on 40 nm citrate-capped gold nanoparticles; excess of the second protein, 3 h incubation; increase of Z-average diameter (Δd); 20 °C; 10 mM HEPES pH 7.3, 10 mM NaCl.

On to NEM-GST-SpyTag, for which the increase of particle diameter (Δd) worked out at 3 nm.

The record behind these values is PMC5902510.
